Source: PMC2910063
Like-named read-outs stand apart in the source and are kept apart here.

Legend:
[1] = target: T1, FoxM1-DBD (FoxM1C 222-360), crystal (UniProt Q08050 222-360); test: X-ray crystallography 2.2 A
T1 sequence: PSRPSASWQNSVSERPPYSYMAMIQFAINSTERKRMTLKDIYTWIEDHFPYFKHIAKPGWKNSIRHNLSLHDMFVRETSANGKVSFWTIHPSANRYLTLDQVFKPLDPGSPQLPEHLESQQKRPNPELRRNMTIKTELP

[2] = target: T2, FoxM1-DBD (FoxM1C 222-360) (UniProt Q08050 222-360); test: competition fluorescence anisotropy
T2 sequence: T1 sequence

[3] = target: T2, FoxM1-DBD (FoxM1C 222-360); test: fluorescence anisotropy
[4] = target: T2, FoxM1-DBD (FoxM1C 222-360); test: fluorescence anisotropy; remark: listed apart in the source

B1: Fm1-2x-19nt-aa/tt (dsDNA)
DNA 1: AAATTGTTTATAAACAGCCCG
DNA 2: TTCGGGCTGTTTATAAACAAT
B1: binds [1].

B2: 1x (dsDNA)
DNA 1: CCGATTGTTTAGCCCGTGCC
DNA 2: GGCACGGGCTAAACAATCGG
B2 gave an IC50 [2] of 7 µM.

B3: 11 bp consensus, TAMRA (dsDNA)
DNA 1: CCATAAACAAC
DNA 2: GTTGTTTATGG
B3 was tested, and the Kd [3] was 7 ± 0.3 µM and the Kd [4] was 7.5 ± 0.8 µM.
